Assay [1] concerns the target T1, His-tagged human IGFBP7 recombinant protein (human, UniProt Q16270 27-282).
T1 construct: not shown: His tag
T1 sequence: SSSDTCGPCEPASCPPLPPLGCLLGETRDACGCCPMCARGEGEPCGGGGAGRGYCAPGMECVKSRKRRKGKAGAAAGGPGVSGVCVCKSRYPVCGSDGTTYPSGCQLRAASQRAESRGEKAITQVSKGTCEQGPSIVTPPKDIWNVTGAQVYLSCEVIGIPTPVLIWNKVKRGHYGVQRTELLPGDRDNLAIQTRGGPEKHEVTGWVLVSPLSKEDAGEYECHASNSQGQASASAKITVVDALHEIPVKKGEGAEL
In words: flow cytometry blockade assay: nanobody 50 ug/mL pre-incubated with His-tagged human IGFBP7 1 ug/mL, then human CD93 CHO cells (FIG. 14). As for the experimental part: Anti-IGFBP7 nanobodies and nanobody-Fc fusions (50 μg/mL) generated in previous examples was incubated with His-tagged human IGFBP7 recombinant protein (1 μg/mL) for 30 minutes in 4° C. Human CD93 expressing CHO cells (1×10⁵ per well) were treated the mixture for 30 minutes at 4° C. Then the cells were washed with FACS buffer and incubated with anti-IGFBP7 monoclonal rabbit antibody (Sino Biological Inc, Catalog #13100-R003) at 1 μg/mL for 30 minutes in 4° C. After incubation, the cells were washed with FACS buffer and incubated with PE-conjugated anti-rabbit IgG antibody ([…]) for 30 minutes in 4° C. After washing with FACS buffer twice, the samples were analyzed and data acquired in NovoCyte Flow.

Assay [2] addresses T2, mouse IGFBP7 recombinant protein (mouse, UniProt Q61581 26-281, biotinylated with EZ-LINK NHS-PEG4 biotin in the BLI assays (sites not given)).
T2 chain: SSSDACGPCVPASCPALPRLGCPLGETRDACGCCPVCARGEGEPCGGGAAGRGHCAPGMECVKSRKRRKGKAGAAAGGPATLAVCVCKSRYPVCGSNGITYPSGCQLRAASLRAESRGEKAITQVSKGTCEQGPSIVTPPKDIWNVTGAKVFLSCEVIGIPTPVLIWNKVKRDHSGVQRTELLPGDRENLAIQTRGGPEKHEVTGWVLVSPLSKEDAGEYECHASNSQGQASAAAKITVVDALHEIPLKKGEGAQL
In words: BLI. (In general: Biolayer interferometry detects binding as a change in optical thickness at a sensor tip.)

Assay [3] addresses T3, human IGFBP7 recombinant protein (UniProt Q16270 27-282, biotinylated with EZ-LINK NHS-PEG4 biotin in the BLI assays (sites not given)).
T3 chain: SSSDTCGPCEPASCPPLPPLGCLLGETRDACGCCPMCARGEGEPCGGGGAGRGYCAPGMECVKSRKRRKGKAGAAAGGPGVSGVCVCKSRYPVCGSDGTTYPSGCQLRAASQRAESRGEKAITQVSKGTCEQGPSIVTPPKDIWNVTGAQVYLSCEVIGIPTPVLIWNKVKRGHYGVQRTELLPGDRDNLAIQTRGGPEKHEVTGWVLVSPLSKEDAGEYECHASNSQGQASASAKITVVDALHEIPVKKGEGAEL
As to the kind of experiment: BLI.

In assay [4] the target is T4, cynomolgus IGFBP7 recombinant protein (cynomolgus).
T4 chain: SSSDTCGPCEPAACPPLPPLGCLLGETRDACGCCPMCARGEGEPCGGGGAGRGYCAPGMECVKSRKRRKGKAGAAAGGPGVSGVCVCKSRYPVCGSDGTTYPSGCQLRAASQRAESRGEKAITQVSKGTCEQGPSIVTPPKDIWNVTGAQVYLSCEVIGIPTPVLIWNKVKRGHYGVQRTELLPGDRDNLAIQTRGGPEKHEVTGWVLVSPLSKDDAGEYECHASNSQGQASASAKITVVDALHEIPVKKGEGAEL
As to the kind of experiment: BLI.

Assay [5] has as its target T2, mouse IGFBP7 recombinant protein. As to the kind of experiment: BLI.
Assay [6] has as its target T3, human IGFBP7 recombinant protein. In words: BLI.
Assay [7] deals with T2, mouse IGFBP7 recombinant protein. In words: BLI.
The target of assay [8] is T3, human IGFBP7 recombinant protein. In words: BLI.
Assay [9] addresses T5, human IGFBP7 recombinant protein (human, UniProt Q16270 27-282, biotinylated with EZ-LINK NHS-PEG4 biotin in the BLI assays (sites not given)).
T5 construct: Soluble protein used for ELISA coating and, biotinylated, on streptavidin biosensors (Octet); also called hIGFBP7; biotinylated IGFBP7 protein
T5 sequence: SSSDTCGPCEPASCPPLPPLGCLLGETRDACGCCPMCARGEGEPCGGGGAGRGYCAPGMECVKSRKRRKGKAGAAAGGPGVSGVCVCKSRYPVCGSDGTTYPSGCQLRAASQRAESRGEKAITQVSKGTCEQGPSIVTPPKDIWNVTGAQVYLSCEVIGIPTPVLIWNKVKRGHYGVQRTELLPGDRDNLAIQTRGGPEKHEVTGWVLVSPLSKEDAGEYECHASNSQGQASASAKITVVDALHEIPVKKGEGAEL
In words: BLI (Octet QKe), biotinylated IGFBP7 on streptavidin biosensors (FIG. 9). Here is the method: (§1) The binding affinity of anti-IGFBP7 nanobody Fc-fusion constructs (e.g., VHH-Fc-fusion constructs) were determined with bio-layer interferometry (BLI) using Octet QKe (Fortebio). Human, mouse, and cynomolgus IGFBP7 were biotinylated using EZ-LINK NHS-PEG4 biotin (Thermo Fisher Scientific). Streptavidin biosensors (ForteBio) were used to load biotinylated IGFBP7 protein (300 seconds in 5 μg/mL). Baseline was stabilized for 60 seconds in 1× kinetics buffer (ForteBio) before anti-IGFBP7 Fc-fucion proteins (serial dilution) were allowed to associate for 300 seconds with captured hIGFBP7 or mIGFBP7. Then the sensors were dissociated in 1× kinetics buffer for 600 seconds. Data analysis was performed on ForteBio Data Analysis HT 11.1 software.

Assay [10] concerns the target T6, mouse IGFBP7 recombinant protein (mouse, UniProt Q61581 26-281, limits assumed, biotinylated with EZ-LINK NHS-PEG4 biotin in the BLI assays (sites not given)).
T6 construct: Soluble protein in ELISA and BLI; also called mIGFBP7
T6 sequence (looked up): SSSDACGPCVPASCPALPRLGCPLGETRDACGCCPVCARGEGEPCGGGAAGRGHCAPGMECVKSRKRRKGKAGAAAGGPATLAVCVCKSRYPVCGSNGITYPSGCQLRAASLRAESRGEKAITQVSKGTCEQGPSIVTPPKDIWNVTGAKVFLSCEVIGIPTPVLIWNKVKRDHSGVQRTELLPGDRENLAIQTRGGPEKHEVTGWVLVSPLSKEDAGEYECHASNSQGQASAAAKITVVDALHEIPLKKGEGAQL
As to the kind of experiment: BLI (Octet QKe), biotinylated IGFBP7 on streptavidin biosensors (FIG. 10). Here is the method:
as §1

For assay [11], the target named is T5, human IGFBP7 recombinant protein. In words: ELISA.
Assay [12] deals with T6, mouse IGFBP7 recombinant protein. As to the kind of experiment: ELISA. (An ELISA detects its analyte on a solid surface through an enzyme-linked reagent.)
The target in assay [13] is T7, human IGFBP7 displayed on HEK293T cells (human, UniProt Q16270 27-282).
T7 construct: domain: CD80 transmembrane domain; signal peptide stated as residues 1-26; also called hIGFBP7; hIGFBP7-HEK cells; not shown: linker; CD80 transmembrane domain
T7 sequence: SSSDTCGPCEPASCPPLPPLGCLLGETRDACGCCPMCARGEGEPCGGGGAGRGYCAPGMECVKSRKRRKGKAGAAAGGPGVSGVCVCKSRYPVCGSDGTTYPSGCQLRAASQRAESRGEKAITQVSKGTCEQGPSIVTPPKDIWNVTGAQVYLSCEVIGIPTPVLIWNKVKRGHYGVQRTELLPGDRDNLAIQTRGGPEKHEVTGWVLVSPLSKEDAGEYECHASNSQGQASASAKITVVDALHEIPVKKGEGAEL
As to the kind of experiment: flow cytometry on human IGFBP7 displaying HEK293T cells, nanobody 10 ug/ml, APC anti-HIS detection. Here is the method: (§2) Human IGFBP7 and mouse IGFBP7 displaying HEK293T cells were detached by incubation with TrypLE reagents (Thermos Fisher), which preserves the integrity of IGFBP7 on the cell surface. Then the cells were incubated with anti-IGFBP7 nanobodies at 10 μg/ml for 30 minutes in 4° C. After washing by FACS buffer, the cells were incubated with APC conjugated anti-HIS antibodies (Biolegend) for 30 minutes in 4° C. After washing by FACS buffer twice, the samples were acquired in NovoCyte Flow Cytometer and analyzed by NovoExpress software.
A general note: Flow cytometry measures light scatter and fluorescence of single cells or particles in a stream.

The target in assay [14] is T8, mouse IGFBP7 displayed on cells (HEK293T or CHO-K1) (mouse, UniProt Q61581 26-281).
T8 construct: whole, on cells;domain: CD80 transmembrane domain; also called mIGFBP7; mIGFBP7-HEK cells; not shown: linker; CD80 transmembrane domain
T8 sequence (looked up): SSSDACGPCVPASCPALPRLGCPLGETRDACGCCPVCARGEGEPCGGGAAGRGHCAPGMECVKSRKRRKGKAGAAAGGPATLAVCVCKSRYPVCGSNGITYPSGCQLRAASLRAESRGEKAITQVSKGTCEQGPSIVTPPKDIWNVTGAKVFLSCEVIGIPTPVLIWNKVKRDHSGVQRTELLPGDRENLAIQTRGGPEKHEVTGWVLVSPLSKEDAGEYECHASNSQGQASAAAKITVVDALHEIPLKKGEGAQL
As to the kind of experiment: flow cytometry on mouse IGFBP7 displaying HEK293T cells, nanobody 10 ug/ml, APC anti-HIS detection. Here is the method: as §2

Where two headings read alike, the source gives them in different places.

The Kd is the constant that tells how readily two partners part at equilibrium.

B1: anti-IGFBP7 nanobody A11 (VHH)
VHH: VQLQESEGGWSGGGSGSGDFDYEKMANANNGAMTDNADAGKQREFVAAITSGGSINYADSVKGRFTISRDNTKKTVYLQMNSLKPEDTAVYVCNIKAHPNPWGFDNDYWGQGTQVTVSS
notes: Llama nanobody expressed in E. coli as His6-tagged protein; also called A11 VHH; not shown: His6 tag
Consider B1, for which the “percent blocking of the CD93-IGFBP7 interaction” value (from here on “percent blocking”) in assay [1] is at least 50%.

B2: A4-mIgG2a nanobody Fc-fusion (Fc fusion)
chain: VQLQESGGGLVQPGGSLRLSCAASGTFTINTYLWYRQPPGKQREFVAAITRGGSINYADSVKGRFTISRDNAKKTVYLQMNSLKPEDTAVYVCNIKAHPNPWGFDNDYWGQGTQVTVSS
With B2, the dissociation constant Kd turned out to be 0.0078 nM in assay [2] and 1.2 nM in assay [3].

B3: anti-IGFBP7 nanobody A03 (VHH)
VHH: VQLQESGGGLVQAGGSLRLSCAASGTFSINTYLWYRQPPGKQREFVAAITSGGSINYADSVKGRFTISRDNAKKTVYLQMNSLKPEDTAVYVCNIKAHPNPWGFDNDYWGQGTQVTVSS
notes: Llama nanobody expressed in E. coli as His6-tagged protein; also called A3; not shown: His6 tag
As to B3, in [1], the “percent blocking” value was at least 50%.

B4: anti-IGFBP7 nanobody A04 (VHH)
VHH: VQLQESGGGLVQPGGSLRLSCAASGTFTINTYLWYRQPPGKQREFVAAITRGGSINYADSVKGRFTISRDNAKKTVYLQMNSLKPEDTAVYVCNIKAHPNPWGFDNDYWGQGTQVTVSS
notes: Llama nanobody expressed in E. coli as His6-tagged protein; also called A4; A4 VHH; not shown: His6 tag
On to B4, for which the “percent blocking” value in [1] was at least 50%.

B5: A1-mIgG1 nanobody Fc-fusion (Fc fusion)
chain: VQLQESGGGLVQAGGSLRLSCAASGSLFAIDKWGWYRQVAGNERELVAWRYSPVSINYGDSVKGRFTVSGDSSRKRVYLQMNSLKPDDTAVYRCAAVISGAWYWGQGTQVTVSS
notes: VHH fused with mIgG1 Fc fragment, expressed in Expi293 cells; also called monospecific A1-mIgG1; not shown: mouse IgG1 Fc fragment (mIgG1 Fc)
On to B5, for which the equilibrium dissociation constant (Kd) is 3.19 nM in assay [4]; 25.8 nM in [5]; 3.82 nM in [6]; 25.8 nM in assay [7]; 3.82 nM in assay [8]. Also, the binding result in [9] and in [10] was “binds” in each case.

B6: anti-IGFBP7 nanobody A01 (VHH)
VHH: VQLQESGGGLVQAGGSLRLSCAASGSLFAIDKWGWYRQVAGNERELVAWRYSPVSINYGDSVKGRFTVSGDSSRKRVYLQMNSLKPDDTAVYRCAAVISGAWYWGQGTQVTVSS
notes: Llama nanobody expressed in E. coli as His6-tagged protein; also called A1; A1 VHH; not shown: His6 tag
As to B6, the binding result in assay [11], in assay [12], in [13] and in assay [14] was “binds” each time.

These data come from patent US20240150466A1 (DYNAMICURE BIOTECHNOLOGY, published 2024).
